Assay results as given in patent publication US5994504.

Molecular target: VDRE-BP (NWP nuclear VDRE binding protein, B95-8 nuclear extract) (UniProt Q9TTV2)
Assay: competition
Settings: 100-fold excess unlabeled competitor

VDRE-BP (NWP nuclear VDRE binding protein, B95-8 nuclear extract), sequence (Q9TTV2 whole entry): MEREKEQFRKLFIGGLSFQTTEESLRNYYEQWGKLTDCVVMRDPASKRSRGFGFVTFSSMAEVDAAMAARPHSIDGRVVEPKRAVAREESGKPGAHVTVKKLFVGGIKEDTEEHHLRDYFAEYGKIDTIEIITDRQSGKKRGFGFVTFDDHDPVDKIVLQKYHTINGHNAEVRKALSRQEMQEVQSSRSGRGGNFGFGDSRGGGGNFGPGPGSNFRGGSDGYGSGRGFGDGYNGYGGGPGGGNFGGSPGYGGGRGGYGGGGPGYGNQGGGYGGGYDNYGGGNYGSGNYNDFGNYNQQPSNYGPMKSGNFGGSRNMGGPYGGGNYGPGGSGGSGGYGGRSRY

Sequence	binding signal (% decrease of opVDRE band)
AGGTCA direct repeat, 3 bp spacer	64
GGTTCA direct repeat, 3 bp spacer	61
